From US20230322924A1 (Janssen / Centocor, published 2023)
Values belong to the binder of their own block, whether it stands above or below them.

Tests used:
[1] = biological target: T1, human TMEFF2 extracellular domain (ECD) (human, UniProt Q9UIK5 41-320); test: KinExA solution equilibrium affinity
T1 construct: also called TMEFF2-ECD
T1 sequence: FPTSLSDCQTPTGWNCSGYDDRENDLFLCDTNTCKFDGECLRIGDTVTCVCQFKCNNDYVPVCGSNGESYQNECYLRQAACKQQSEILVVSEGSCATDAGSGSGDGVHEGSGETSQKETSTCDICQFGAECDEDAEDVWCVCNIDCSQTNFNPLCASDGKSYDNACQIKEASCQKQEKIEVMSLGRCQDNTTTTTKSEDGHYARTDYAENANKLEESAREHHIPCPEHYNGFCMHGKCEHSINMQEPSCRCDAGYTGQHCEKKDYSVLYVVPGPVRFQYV
Method: Serial dilutions of human TMEFF2 extracellular domain (ECD) were prepared with a constant concentration of anti-TMEFF2 mAb in 10 mM HEPES, 150 mM NaCL, 0.05% surfactant P20, pH 7.4, 0.1% BSA, and 0.02% NaN3. The reaction mixtures were incubated at RT until the binding interactions reached equilibrium. The duration of the incubation was determined using KinExA software simulation. Beads were prepared by direct covalent immobilization of TMEFF2-ECD by amine-coupling on pre-activated beads composed of bis-acrylamide/azlactone copolymer (Pierce Biotechnology, Inc.). After incubation the samples were run on the KinExA instrument to assess free antibody in the mixture by passing the mixture though the TMEFF2-modified beads, and detecting the captured antibody using a fluorescently labeled secondary antibody. The data was fit with a 1:1 binding model using the KinExA Pro software.

[2] = biological target: T2, N-terminal CD3ε peptide; test: Biacore 8K SPR, antibody captured on anti-human Ig, peptide as analyte
T2 construct: domain: N-terminal CD3ε peptide
T2 sequence (P07766 22-48): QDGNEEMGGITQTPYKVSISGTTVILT
Method: Kinetic rate constants were measured by SPR performed using Biacore 8K (GE Healthcare) and anti-human Fc biosensor surfaces. Anti-human immunoglobulin antibodies were covalently coupled to the surface of a CM4 sensor chip (GE Healthcare). Antibodies of interest were captured on the anti-human immunoglobulin sensor chip, followed by injection of N-terminal CD3ε peptide at various concentrations in HEPES Buffered Saline containing 0.05% surfactant P20 (Tween™ 20) and 100 ug/mL BSA. The surface was regenerated with 2 pulses injections of 30 μL of 0.8% phosphoric acid at 100 μL/min. Data reported is the difference in SPR signal between the flow cell containing the captured antibody and a reference cell without captured antibody. Additional instrumental contributions to the signal were removed by subtraction of the data from the blank injection from the reference-subtracted signal. The data were analyzed by fitting association and dissociation phases at all concentrations (global fit) with a 1:1 binding model using the Biaevaluation software (Biacore, Inc.). Data is reported as average+95% CI (Confidence Interval) which is calculated by t value for 95% CI*stdev/square root of the number of replicates.

[3] = biological target: T3, rh-CD19 (UniProt P15391 20-291, limits assumed); test: Biacore 8K non-specific binding test, antibody over immobilised protein
T3 sequence (looked up): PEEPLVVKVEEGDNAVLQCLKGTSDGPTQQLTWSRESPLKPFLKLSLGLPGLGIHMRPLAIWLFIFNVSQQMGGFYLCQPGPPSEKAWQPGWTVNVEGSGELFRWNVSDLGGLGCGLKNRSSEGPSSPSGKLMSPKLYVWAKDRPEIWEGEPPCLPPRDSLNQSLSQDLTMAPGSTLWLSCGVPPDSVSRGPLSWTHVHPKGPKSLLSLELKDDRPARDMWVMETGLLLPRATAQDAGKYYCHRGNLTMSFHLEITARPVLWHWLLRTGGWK
Method: (§1) Non-specific binding of the lead molecule to unrelated surfaces is determined by biosensor technology (Biacore 8K). Antibody is passed over SPR surfaces coated with unrelated proteins. […] Irrelevant surfaces include negatively charged protein (Soy Trypsin Inhibitor), positively charged protein (Lysozyme and β-defensin), hydrophobic (Rh-integrin a4b7), human IgG, sticky protein (Rh-CD19). Proper controls are used in this experiment. Lead is flown over two surfaces, one is a blank and the other has a molecule directly immobilized. The response unit (RU) level is determined by subtracting the blank RU from the test surface RU. […] A response unit ≥100 predicts high risks for non-specific binding to charged/hydrophobic/IgG surfaces which would create challenges during manufacturing and translate to poor PK properties.

[4] = biological target: Lysozyme; test: as above
Lysozyme, sequence (P00698 19-147): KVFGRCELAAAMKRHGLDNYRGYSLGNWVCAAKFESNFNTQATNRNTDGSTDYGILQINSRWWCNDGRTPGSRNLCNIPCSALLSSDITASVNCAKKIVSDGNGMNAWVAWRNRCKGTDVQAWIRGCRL
Method: as §1

[5] = biological target: Human IgG; test: as above
Method: as §1

[6] = biological target: rh-Integrin a4b7 (UniProt P13612 34-977; P26010 20-723, limits assumed); test: as above
Method: as §1

[7] = biological target: T4, B-Defensin-3; test: as above
T4 construct: also called β-defensin
T4 sequence (P81534 23-67): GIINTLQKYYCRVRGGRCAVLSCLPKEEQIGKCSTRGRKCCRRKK
Method: as §1

[8] = biological target: T5, human CD3 on human T cells (human, UniProt P07766 23-207); test: flow cytometry, primary human T cells, AF647 anti-human IgG F(ab')2 secondary
T5 construct: Native TCR-CD3 complex on cells; also called primary human T cells; human pan T cells
T5 sequence (P07766 23-207 limits assumed): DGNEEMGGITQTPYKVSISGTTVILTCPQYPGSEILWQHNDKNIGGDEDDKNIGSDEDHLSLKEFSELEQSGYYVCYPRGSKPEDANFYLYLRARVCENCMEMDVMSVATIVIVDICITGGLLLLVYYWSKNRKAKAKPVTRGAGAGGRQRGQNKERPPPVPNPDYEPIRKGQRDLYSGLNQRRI
Method: The 80 mutant clones were assayed for binding to primary human T cells (FIGS. 7 and 8). […] The plates were centrifuged at 300×g for 5 minutes to pellet the cells and the supernatant removed. The plate was gently vortexed briefly to resuspend the cells.

[9] = biological target: T6, Soy Trypsin Inhibitor (soy, UniProt P01070 25-205); test: Biacore 8K non-specific binding test, antibody over immobilised protein
T6 construct: also called STI
T6 sequence (looked up): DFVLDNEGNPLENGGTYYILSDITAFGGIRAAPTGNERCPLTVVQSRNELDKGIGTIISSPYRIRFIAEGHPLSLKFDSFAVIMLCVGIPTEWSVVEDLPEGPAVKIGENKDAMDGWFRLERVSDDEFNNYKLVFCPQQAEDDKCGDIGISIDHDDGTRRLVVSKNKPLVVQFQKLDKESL
Method: as §1

[10] = biological target: T7, TMEW1 (TMEFF2-FL-ECD-His-Avitag) (human, UniProt Q9UIK5 41-320); test: Biacore 8K SPR, mAb captured on anti-human Fc, single cycle kinetics
T7 construct: Human TMEFF2 ECD with C-terminal G3S, 6xHis tag and Avi-tag, all in the entry; also called TMEFF2 ECD
T7 sequence: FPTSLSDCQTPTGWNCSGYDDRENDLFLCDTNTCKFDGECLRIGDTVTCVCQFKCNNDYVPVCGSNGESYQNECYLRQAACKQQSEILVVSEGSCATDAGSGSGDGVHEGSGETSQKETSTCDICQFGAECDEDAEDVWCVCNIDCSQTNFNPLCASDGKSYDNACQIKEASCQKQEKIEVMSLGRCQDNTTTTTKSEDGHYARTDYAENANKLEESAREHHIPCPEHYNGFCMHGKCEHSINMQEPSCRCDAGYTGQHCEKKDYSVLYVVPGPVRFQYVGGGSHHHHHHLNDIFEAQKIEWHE
Method: The binding of anti-TMEFF2 mAbs to human TMEFF2 ECD was measured by Biacore 8K SPR. The format of the assay was to capture the mAbs using a high density anti-human Fc surface, then inject human TMEFF2 concentration titration using a single cycle kinetics method. […] The mAbs were captured on the anti-human Fc IgG surface at 0.5 μg/ml (˜200-300 RU) on flow cell 2. The running buffer was then changed to HBSP+100 ug/ml BSA. TMEFF2 ECD at 30 nM concentration in 3-fold dilution series was injected from low to high concentration using single cycle kinetics method. The off-rate was monitored 30 minutes after the last or highest concentration injection and then the surface was regenerated using 0.8% phosphoric acid (Bio-Rad). A buffer blank run, capturing the same mAbs and using the same conditions of sample run was also completed. The raw data were processed by subtracting two sets of reference data from the response data: 1) reference flow cell 1 subtracted from sample flow cell 2 and 2) buffer blank run from experimental run. The processed data at all concentrations for each mAb were globally fit to a 1:1 simple Langmuir binding model to extract estimates of the kinetic (kon, koff) and affinity (KD) constants.

[11] = biological target: T8, Human CD33-V-HSA (human); test: SPRi off-rate screen (IBIS MX96)
T8 construct: V domain of human CD33 fused to HSA; also called C33W3; huCD33-V-HSA

[12] = biological target: T9, Human CD33 ECD-HSA (human); test: SPRi off-rate screen (IBIS MX96)
T9 construct: CD33 ECD fused at the C-terminus to monomeric HSA (C58S) and a six-histidine tag; also called C33W2; huCD33 ECD-HSA

B1: TMCB150 (bispecific antibody, human IgG4 S228P, kappa, lambda, F234A L235A)
heavy 1: not shown
light 1: not shown
heavy 2: QVQLQQSGPRLVRPSQTLSLTCAISGDSVFNNNAAWSWIRQSPSRGLEWLGRTYYRSKWLYDYAVSVKSRITVNPDTSRNQFTLQLNSVTPEDTALYYCARGYSSSFDYWGQGTLVTVSSASTKGPSVFPLAPCSRSTSESTAALGCLVKDYFPEPVTVSWNSGALTSGVHTFPAVLQSSGLYSLSSVVTVPSSSLGTKTYTCNVDHKPSNTKVDKRVESKYGPPCPPCPAPEAAGGPSVFLFPPKPKDTLMISRTPEVTCVVVDVSQEDPEVQFNWYVDGVEVHNAKTKPREEQFNSTYRVVSVLTVLHQDWLNGKEYKCKVSNKGLPSSIEKTISKAKGQPREPQVYTLPPSQEEMTKNQVSLTCLVKGFYPSDIAVEWESNGQPENNYKTTPPVLDSDGSFLLYSKLTVDKSRWQEGNVFSCSVMHEALHNHYTQKSLSLSLGK
light 2: QSALTQPASVSGSPGQSITISCTGTSSNIGTYKFVSWYQQHPDKAPKVLLYEVSKRPSGVSSRFSGSKSGNTASLTISGLQAEDQADYHCVSYAGSGTLLFGGGTKLTVLGQPKAAPSVTLFPPSSEELQANKATLVCLISDFYPGAVTVAWKADSSPVKAGVETTTPSKQSNNKYAASSYLSLTPEQWKSHRSYSCQVTHEGSTVEKTVAPTECS
notes: IgG4 PAA bispecific by Fab-arm exchange; also called TMEB762 x CD3B376
Kd [1]: 0.0636 nM
Kd [2]: 28.7 nM
koff [2]: 0.00103 s⁻¹
kon [2]: 35700 M⁻¹ s⁻¹
response units (RU) [3]: 3.4 RU
response units (RU) [4]: 4.2 RU
response units (RU) [5]: 7.5 RU
response units (RU) [6]: 0 RU
response units (RU) [7]: 6.4 RU

B3: CD3B376 (antibody, human IgG4 S228P, lambda, F234A L235A, V domains shown)
VH: QVQLQQSGPRLVRPSQTLSLTCAISGDSVFNNNAAWSWIRQSPSRGLEWLGRTYYRSKWLYDYAVSVKSRITVNPDTSRNQFTLQLNSVTPEDTALYYCARGYSSSFDYWGQGTLVTVSS
VL: QSALTQPASVSGSPGQSITISCTGTSSNIGTYKFVSWYQQHPDKAPKVLLYEVSKRPSGVSSRFSGSKSGNTASLTISGLQAEDQADYHCVSYAGSGTLLFGGGTKLTVLG
notes: Bivalent anti-CD3 parental mAb, IgG4 PAA with F405L and R409K; also called CD3H219/CD3L150
Kd [2]: 26.9 nM
koff [2]: 0.00117 s⁻¹
kon [2]: 43300 M⁻¹ s⁻¹
response units (RU) [3]: 0 RU
response units (RU) [9]: 19.5 RU
response units (RU) [4]: 0.2 RU
response units (RU) [5]: 0.4 RU
response units (RU) [6]: 0 RU
response units (RU) [7]: 3.1 RU

B5: C33B836 (antibody, IgG4, V domains shown)
VH: QVQLVQSGSELRKPGASVKVSCKASGYTFTNYAMNWVRQAPGQGLEWMGWINTNTGNPTYAQGFTGRFVFSLDTSVSSAYLQISSLKAEDTAMYYCATDRDRGTDYWGQGTLVTVSS
VL: QSALTQPASVSGSPGQSITISCTGTSSDVGDYNYVSWYQQHPGKVPKLMIYDVSNRPSGVSNRFSGSMSGNTASLTISGLQAEDEADYYCSSYSSSSALEVFGGGTKLTVL
notes: OMNIRat-derived; same V regions as C33B48; also called C33H80/C33L73; C33F53
koff [11]: 3.71e-05 s⁻¹
koff [12]: 5.52e-05 s⁻¹

More lines, now with the values ahead:

binding result [8]: no binding (tested: 50 nM)
B2: D43G/V48L/L49M/L50I/S62N/Q85E/H89Y LC (with WT HC) (antibody, V domains shown)
VH: B3 VH
VL: QSALTQPASVSGSPGQSITISCTGTSSNIGTYKFVSWYQQHPGKAPKLMIYEVSKRPSGVSNRFSGSKSGNTASLTISGLQAEDEADYYCCSYAGSGTLLFGGGTKLTVL
notes: also called BLW-2E6 variant CD3H219/CD3L136

Kd [1]: 0.0461 nM
Kd [10]: 0.32 nM
koff [10]: 0.000174 s⁻¹
kon [10]: 541000 M⁻¹ s⁻¹
response units (RU) [3]: 3.3 RU
response units (RU) [4]: 4.6 RU
response units (RU) [5]: 8.4 RU
response units (RU) [6]: 0 RU
response units (RU) [7]: 4.1 RU
B4: TMEB762 (antibody, human IgG4 S228P, kappa, F234A L235A, V domains shown)
VH: EVQLLESGGGLVQPGGSLRLSCAASGFTFSSYSMSWVRQAPGKGLEWVSVISGSGGFTDYADSVKGRFTISRDNSKNTLYLQMNSLRAEDTAVYYCARMPLNSPHDYWGQGTLVTVSS
VL: DIQMTQSPSSLSASVGDRVTITCRASQGIRNDLGWYQQKPGKAPKLLIYAASSLQSGVPSRFSGSGSGTDFTLTISSLQPEDFATYYCLQDYNYPLTFGGGTKVEIKR
notes: IgG4 PAA anti-TMEFF2; re-engineered variant of TMEB675; also called TMEH459/DL3L129
